Laboratory results published in paper PMC11190147, “Structures of the Staphylococcus aureus ribosome inhibited by fusidic acid and fusidic acid cyclopentane” (Scientific Reports, 2024).

Experiments:
[1] = biological target: Staphylococcus aureus 70S ribosome (S. aureus NCTC 8325-4 (endogenous)) (UniProt Q2FW21); assay: cryo-EM structure; FA-CP complex: as the FA complex but with 5 uM E. coli tRNAfMet and 400 uM FA-CP instead of FA; CHI state 2.0 Å, POST state 2.4 Å
[2] = biological target: Staphylococcus aureus 70S ribosome (S. aureus NCTC 8325-4 (endogenous)) (UniProt Q2FW21); assay: cryo-EM structure; FA complex: 0.5 uM S. aureus 70S, 2 uM mRNA Z4AUGGCA, 2 uM E. coli tRNAfMet, 5 uM S. aureus EF-G, 400 uM FA, 1 mM GTP in HEPES polymix buffer (20 mM HEPES pH 7.5, 5 mM BME), 10 min steps at 37 °C; 1 ul of 25 uM FusB with 400 uM FA mixed into the drop on the grid; CHI state 2.5 Å (modelled), POST state 3.1 Å (not modelled)
[3] = biological target: T1, Staphylococcus aureus elongation factor G (Staphylococcus aureus, UniProt P68790 1-693); assay: as above; settings: both partners purified
T1 construct: Ser-Leu that remains at the N-terminus after TEV cleavage of the 6xHis tag and linker; In the complexes EF-G carries GDP, magnesium and FA or FA-CP; also called EF-G; S. aureus EF-G; source: E. coli BL21 (DE3), purified (Ni Sepharose, TEV cleavage, reverse IMAC, Superdex-200 gel filtration); not shown: 6xHis, N-terminal, cleaved

| Molecule | percent of 70S particles that contain EF-G [1] | percent of ribosomes bound to EF-G [2] | binding result [3] |
| --- | --- | --- | --- |
| Staphylococcus aureus elongation factor G (from UniProt P68790 1-693) (natural protein) | 72% | 60% |  |
| Staphylococcus aureus ribosomal protein uL6 (natural protein, S. aureus NCTC 8325-4 (endogenous), UniProt Q2FW21 1-178, looked up, Large-subunit ribosomal protein uL6 of S. aureus, encoded by rplF, as it stands in the native 70S ribosome; Present as a subunit of the 70S ribosome, not as an isolated protein; source: endogenous, in 70S ribosomes purified from S. aureus NCTC 8325-4 (sucrose cushions, zonal centrifugation)) MSRVGKKIIDIPSDVTVTFDGNHVTVKGPKGELSRTLNERMTFKQEENTIEVVRPSDSKEDRTNHGTTRALLNNMVQGVSQGYVKVLELVGVGYRAQMQGKDLILNVGYSHPVEIKAEENITFSVEKNTVVKVEGISKEQVGALASNIRSVRPPEPYKGKGIRYQGEYVRRKEGKTGK |  |  | binds |
